Data: doi:10.1101/2020.01.19.911149 (bioRxiv, 2020)

B1: SmF-GFP (natural protein, S. cerevisiae, UniProt P54999 1-86, looked up)
chain: MSESSDISAMQPVNPKPFLKGLVNHRVGVKLKFNSTEYRGTLVSTDNYFNLQLNEAEEFVAGVSHGTLGEIFIRCNNVLYIRELPN
B2: BsHfq-GFP (natural protein, Bacillus subtilis, UniProt O31796 1-73, looked up)
chain: MKPINIQDQFLNQIRKENTYVTVFLLNGFQLRGQVKGFDNFTVLLESEGKQQLIYKHAISTFAPQKNVQLELE

Target: the molecule itself
Assay: SEC-MALS

Protein	stoichiometry N
B1	14
B2	6
